Experimental data as given in article PMC3858840 (2013).
No end group written: not given here.

Target: calmodulin (Homo sapiens, UniProt P0DP23)
Test: TMR fluorescence titration

Kd: ~1000 nM
B1: TMR-labeled L-selectin cytoplasmic peptide cytoplasmic domain (peptide)
chain: ARRLKKGKKSKRSMNDPY
modifications: also: TMR label, site not given here
